According to patent US20010014328A1:

Molecular target: human FcαRI (IgA Fc receptor, CD89) on effector cells (human) (UniProt P24071)
Assay: cell-based or functional assay

Row | Substance | BsAb-dependent lysis of SKBR-3 cells by purified PMN, 1.0 µg/ml BsAb (FIG. 10) | cytolysis of SKBR-3 breast tumor cells by effector cells in whole blood, 0.1 µg/ml BsAb (FIG. 8) | cytolysis of SKBR-3 breast tumor cells by effector cells in whole blood, 1.0 µg/ml BsAb (FIG. 8) | cytotoxicity of SKBR-3 cells by neutrophil effector cells (51Cr release), 0.1 µg/ml BsAb (FIG. 7) | cytotoxicity of SKBR-3 cells by neutrophil effector cells (51Cr release), 1.0 µg/ml BsAb (FIG. 7) | cytotoxicity of SKBR-3 cells by neutrophils pre-incubated with G-CSF and IFN-γ, 0.1 µg/ml BsAb (FIG. 22) | percent effector cells (monocytes or neutrophils) engaged in phagocytosis of SKBR-3 cells (FIG. 18) | phagocytosis of SKBR-3 cells by monocyte-derived macrophages, 0.1 µg/ml BsAb (FIG. 19, panel 5; about 45% without BsAb) | BsAb-dependent lysis of A431 cells by purified monocytes (FIG. 14) | BsAb-dependent lysis of A431 cells with whole blood as source of effector cells (FIG. 15) | cytolysis of tumor cells by TNF-treated monocytes, 1.0 µg/ml BsAb (FIG. 23) | cytolysis of tumor cells by untreated monocytes, 1.0 µg/ml BsAb (FIG. 23)
1 | A77X520C9 anti-FcαRXanti-HER2/neu bispecific antibody | < 37% | 15 to 20% | 25 to 30% | 6 to 9% | 20 to 30% | > 10% | 65 to 75% | > 95% | – | – | – | –
2 | A77XH425 bispecific antibody (anti-FcαRI x anti-EGF-R) | – | – | – | – | – | – | – | – | < 55% | < 43% | > 60% | > 60%
